Laboratory results taken from article doi:10.1101/2023.03.28.534355 (bioRxiv, 2023).

Key:
[1] = target: GBP1 D308S/L309A/P310A (human) (UniProt P32455); test: mass photometry
[2] = target: human Guanylate-Binding Protein 1 (GBP1), full-length, non-farnesylated (human) (UniProt P32455); test: SEC-MALS
[3] = target: human Guanylate-Binding Protein 1 (GBP1), full-length, non-farnesylated (human) (UniProt P32455); test: mass photometry
mass photometry = target: the molecule itself; test: mass photometry

GBP1 D308S/L309A/P310A (from UniProt P32455 1-592) (enzyme)
stoichiometry N [1]: 2

human Guanylate-Binding Protein 1 (GBP1), full-length, non-farnesylated (from UniProt P32455 1-592) (enzyme)
stoichiometry N [2]: 2
stoichiometry N [3]: 2

B1: GBP1 D308S (enzyme)
chain: MASEIHMTGPMCLIENTNGRLMANPEALKILSAITQPMVVVAIVGLYRTGKSYLMNKLAGKKKGFSLGSTVQSHTKGIWMWCVPHPKKPGHILVLLDTEGLGDVEKGDNQNDSWIFALAVLLSSTFVYNSIGTINQQAMDQLYYVTELTHRIRSKSSPDENENEVEDSADFVSFFPDFVWTLRDFSLDLEADGQPLTPDEYLTYSLKLKKGTSQKDETFNLPRLCIRKFFPKKKCFVFDRPVHRRKLAQLEKLQDEELDPEFVQQVADFCSYIFSNSKTKTLSGGIQVNGPRLESLVLTYVNAISSGSLPCMENAVLALAQIENSAAVQKAIAHYEQQMGQKVQLPTETLQELLDLHRDSEREAIEVFIRSSFKDVDHLFQKELAAQLEKKRDDFCKQNQEASSDRCSALLQVIFSPLEEEVKAGIYSKPGGYRLFVQKLQDLKKKYYEEPRKGIQAEEILQTYLKSKESMTDAILQTDQTLTEKEKEIEVERVKAESAQASAKMLQEMQRKNEQMMEQKERSYQEHLKQLTEKMENDRVQLLKEQERTLALKLQEQEQLLKEGFQKESRIMKNEIQDLQTKMRRRKACTIS
stoichiometry N (mass photometry): 2
